These results are taken from paper PMC10010325.

In assay [1] the target is Fcγ receptor type IIIA (CD16A), low affinity F158 (UniProt P08637). The assay is described as follows: not named in legend (luminescence read-out, antibody titration on CD16A F158). The following applies: value read at the highest antibody concentration, log10(µg/mL) about -1; parent: est. 4400; read off a plot.
For assay [2], the target named is human CLDN18.2 (Claudin18.2), P56856-2. The assay is described as follows: not named in legend (MFI read-out, antibody titration on CLDN18.2). Particulars: value read at the highest antibody concentration, log10(µg/mL) about 1.5; read off a plot.

Sequence of UniProt P08637 (P08637 17-254): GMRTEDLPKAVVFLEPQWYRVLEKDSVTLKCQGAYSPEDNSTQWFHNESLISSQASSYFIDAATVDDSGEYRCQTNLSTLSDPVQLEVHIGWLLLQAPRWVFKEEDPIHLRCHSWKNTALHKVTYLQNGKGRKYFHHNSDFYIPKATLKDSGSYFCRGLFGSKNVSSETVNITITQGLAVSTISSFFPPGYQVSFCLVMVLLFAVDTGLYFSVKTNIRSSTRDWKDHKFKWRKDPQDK

Consider “ZL-1211 wild-type (WT) Fc Fc mutations for enhanced ADCC (substitutions not printed)”, for which the response in assay [1] was found to be 5000 luminescence; in assay [2], 35000 MFI.
